Measurements: patent US20110263827A1 (AbbVie / Abbott, published 2011)

B1: DVD781 (bispecific antibody)
VH: QVQLQESGPGLVKPSQTLSLTCTVSGYSISSDFAWNWIRQPPGKGLEWMGYISYSGNTRYQPSLKSRITISRDTSKNQFFLKLNSVTAADTATYYCVTAGRGFPYWGQGTLVTVSSASTKGPSVFPLAPEVQLVESGGGLVQPGGSLRLSCAASGFTFTDNWISWVRQAPGKGLEWVGYISPNSGFTYYADSVKGRFTISADTSKNTAYLQMNSLRAEDTAVYYCARDNFGGYFDYWGQGTLVTVSS
VL: DIQMTQSPSSMSVSVGDRVTITCHSSQDINSNIGWLQQKPGKSFKGLIYHGTNLDDGVPSRFSGSGSGTDYTLTISSLQPEDFATYYCVQYAQFPWTFGGGTKLEIKRTVAAPSVFIFPPDIQMTQSPSSLSASVGDRVTITCRASQDVSTAVAWYQQKPGKAPKLLIYSASFLYSGVPSRFSGSGSGTDFTLTISSLQPEDFATTYYCQQSYTGTVTFGQGTKVEIKR
notes: DVD-Ig; HC L, LC L; variable parts only
B2: DVD841 (bispecific antibody)
VH: QVQLQESGPGLVKPSQTLSLTCTVSGYSISSDFAWNWIRQPPGKGLEWMGYISYSGNTRYQPSLKSRITISRDTSKNQFFLKLNSVTAADTATYYCVTAGRGFPYWGQGTLVTVSSASTKGPEVQLVESGGGLVQPGGSLRLSCAASGFTFTDNWISWVRQAPGKGLEWVGYISPNSGFTYYADSVKGRFTISADTSKNTAYLQMNSLRAEDTAVYYCARDNFGGYFDYWGQGTLVTVSS
VL: B1 VL
notes: DVD-Ig; HC S, LC L; variable parts only
B3: DVD811 (bispecific antibody)
VH: B1 VH
VL: DIQMTQSPSSMSVSVGDRVTITCHSSQDINSNIGWLQQKPGKSFKGLIYHGTNLDDGVPSRFSGSGSGTDYTLTISSLQPEDFATYYCVQYAQFPWTFGGGTKLEIKRTVAAPDIQMTQSPSSLSASVGDRVTITCRASQDVSTAVAWYQQKPGKAPKLLIYSASFLYSGVPSRFSGSGSGTDFTLTISSLQPEDFATTYYCQQSYTGTVTFGQGTKVEIKR
notes: DVD-Ig; HC L, LC S; variable parts only
B4: DVD339 (bispecific antibody)
VH: B2 VH
VL: B3 VL
notes: DVD-Ig; HC S, LC S; variable parts only
B5: DVD335 (bispecific antibody)
VH: QVQLQESGPGLVKPSQTLSLTCTVSGYSISSDFAWNWIRQPPGKGLEWMGYISYSGNTRYQPSLKSRITISRDTSKNQFFLKLNSVTAADTATYYCVTAGRGFPYWGQGTLVTVSSASTKGPQVQLVESGGGLVKPGGSLRLSCAASGFTFSDYYMSWIRQAPGKGLEWVSYISSSGSTIYYADSVKGRFTISRDNAKNSLYLQMNSLRAEDTAVYYCARDEYNSGWYVLFDYWGQGTLVTVSS
VL: DIQMTQSPSSMSVSVGDRVTITCHSSQDINSNIGWLQQKPGKSFKGLIYHGTNLDDGVPSRFSGSGSGTDYTLTISSLQPEDFATYYCVQYAQFPWTFGGGTKLEIKRTVAAPDIQMTQSPSSVSASVGDRVTITCRASQGISSWLAWYQQKPGKAPNLLIYEASSLQSGVPSRFGGSGSGTDFTLTISSLQPEDFATYYCQQANGFPWTFGQGTKVEIKR
notes: as for B4
B6: DVD782 (bispecific antibody)
VH: EVQLVESGGGLVQPGGSLRLSCAASGFTFTDNWISWVRQAPGKGLEWVGYISPNSGFTYYADSVKGRFTISADTSKNTAYLQMNSLRAEDTAVYYCARDNFGGYFDYWGQGTLVTVSSASTKGPSVFPLAPQVQLQESGPGLVKPSQTLSLTCTVSGYSISSDFAWNWIRQPPGKGLEWMGYISYSGNTRYQPSLKSRITISRDTSKNQFFLKLNSVTAADTATYYCVTAGRGFPYWGQGTLVTVSS
VL: DIQMTQSPSSLSASVGDRVTITCRASQDVSTAVAWYQQKPGKAPKLLIYSASFLYSGVPSRFSGSGSGTDFTLTISSLQPEDFATTYYCQQSYTGTVTFGQGTKVEIKRTVAAPSVFIFPPDIQMTQSPSSMSVSVGDRVTITCHSSQDINSNIGWLQQKPGKSFKGLIYHGTNLDDGVPSRFSGSGSGTDYTLTISSLQPEDFATYYCVQYAQFPWTFGGGTKLEIKR
notes: as for B1
B7: DVD842 (bispecific antibody)
VH: EVQLVESGGGLVQPGGSLRLSCAASGFTFTDNWISWVRQAPGKGLEWVGYISPNSGFTYYADSVKGRFTISADTSKNTAYLQMNSLRAEDTAVYYCARDNFGGYFDYWGQGTLVTVSSASTKGPQVQLQESGPGLVKPSQTLSLTCTVSGYSISSDFAWNWIRQPPGKGLEWMGYISYSGNTRYQPSLKSRITISRDTSKNQFFLKLNSVTAADTATYYCVTAGRGFPYWGQGTLVTVSS
VL: B6 VL
notes: as for B2
B8: DVD812 (bispecific antibody)
VH: B6 VH
VL: DIQMTQSPSSLSASVGDRVTITCRASQDVSTAVAWYQQKPGKAPKLLIYSASFLYSGVPSRFSGSGSGTDFTLTISSLQPEDFATTYYCQQSYTGTVTFGQGTKVEIKRTVAAPDIQMTQSPSSMSVSVGDRVTITCHSSQDINSNIGWLQQKPGKSFKGLIYHGTNLDDGVPSRFSGSGSGTDYTLTISSLQPEDFATYYCVQYAQFPWTFGGGTKLEIKR
notes: as for B3
B9: DVD340 (bispecific antibody)
VH: B7 VH
VL: B8 VL
notes: as for B4
B10: DVD778 (bispecific antibody)
VH: QVQLVESGGGLVKPGGSLRLSCAASGFTFSDYYMSWIRQAPGKGLEWVSYISSSGSTIYYADSVKGRFTISRDNAKNSLYLQMNSLRAEDTAVYYCARDEYNSGWYVLFDYWGQGTLVTVSSASTKGPSVFPLAPQVQLQESGPGLVKPSQTLSLTCTVSGYSISSDFAWNWIRQPPGKGLEWMGYISYSGNTRYQPSLKSRITISRDTSKNQFFLKLNSVTAADTATYYCVTAGRGFPYWGQGTLVTVSS
VL: DIQMTQSPSSVSASVGDRVTITCRASQGISSWLAWYQQKPGKAPNLLIYEASSLQSGVPSRFGGSGSGTDFTLTISSLQPEDFATYYCQQANGFPWTFGQGTKVEIKRTVAAPSVFIFPPDIQMTQSPSSMSVSVGDRVTITCHSSQDINSNIGWLQQKPGKSFKGLIYHGTNLDDGVPSRFSGSGSGTDYTLTISSLQPEDFATYYCVQYAQFPWTFGGGTKLEIKR
notes: as for B1
B11: DVD838 (bispecific antibody)
VH: QVQLVESGGGLVKPGGSLRLSCAASGFTFSDYYMSWIRQAPGKGLEWVSYISSSGSTIYYADSVKGRFTISRDNAKNSLYLQMNSLRAEDTAVYYCARDEYNSGWYVLFDYWGQGTLVTVSSASTKGPQVQLQESGPGLVKPSQTLSLTCTVSGYSISSDFAWNWIRQPPGKGLEWMGYISYSGNTRYQPSLKSRITISRDTSKNQFFLKLNSVTAADTATYYCVTAGRGFPYWGQGTLVTVSS
VL: B10 VL
notes: as for B2
B12: DVD808 (bispecific antibody)
VH: B10 VH
VL: DIQMTQSPSSVSASVGDRVTITCRASQGISSWLAWYQQKPGKAPNLLIYEASSLQSGVPSRFGGSGSGTDFTLTISSLQPEDFATYYCQQANGFPWTFGQGTKVEIKRTVAAPDIQMTQSPSSMSVSVGDRVTITCHSSQDINSNIGWLQQKPGKSFKGLIYHGTNLDDGVPSRFSGSGSGTDYTLTISSLQPEDFATYYCVQYAQFPWTFGGGTKLEIKR
notes: as for B3
B13: DVD336 (bispecific antibody)
VH: B11 VH
VL: B12 VL
notes: as for B4

target: T1, EGFR (UniProt P00533 25-645, limits assumed, biotinylated); assay: direct bind ELISA, N-term VD;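 further: antibody or DVD-Ig preparations bound to immobilized target antigen on ELISA plates, 1 h at room temperature, TMB detection read as absorbance at 450 nm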
T1 construct: ELISA antigen; construct not described

| EC50 | Binder |
| --- | --- |
| 4.19 nM | B1 |
| 4.06 nM | B2 |
| 3.45 nM | B3 |
| 5.1 nM | B4 |
| 3.77 nM | B5 |

target: T2, DLL-4 (UniProt Q9NR61 27-524, limits assumed, biotinylated); assay: direct bind ELISA, N-term VD;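 further: antibody or DVD-Ig preparations bound to immobilized target antigen on ELISA plates, 1 h at room temperature, TMB detection read as absorbance at 450 nm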
T2 construct: ELISA antigen

| EC50 | Binder |
| --- | --- |
| 0.37 nM | B6 |
| 0.36 nM | B7 |
| 0.39 nM | B8 |
| 0.32 nM | B9 |

target: T3, HGF (UniProt P14210 32-728, limits assumed, biotinylated); assay: direct bind ELISA, N-term VD;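 further: antibody or DVD-Ig preparations bound to immobilized target antigen on ELISA plates, 1 h at room temperature, TMB detection read as absorbance at 450 nm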
T3 construct: ELISA antigen

| EC50 | Binder |
| --- | --- |
| 0.17 nM | B10 |
| 0.19 nM | B11 |
| 0.14 nM | B12 |
| 0.15 nM | B13 |

target: T1, EGFR; assay: direct bind ELISA, C-term VD;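 further: ELISA with antibody or DVD-Ig preparations applied to target antigen-coated plates for 1 h at room temperature, TMB colour development, absorbance read at 450 nm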

| EC50 | Binder |
| --- | --- |
| 50.3 nM | B10 |
| 57.7 nM | B11 |
| 96.4 nM | B12 |
| 332 nM | B13 |
| 55.2 nM | B6 |
| 51.7 nM | B7 |
| 77.3 nM | B8 |
| 189 nM | B9 |

target: T2, DLL-4; assay: direct bind ELISA, C-term VD;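 further: ELISA with antibody or DVD-Ig preparations applied to target antigen-coated plates for 1 h at room temperature, TMB colour development, absorbance read at 450 nm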

| EC50 | Binder |
| --- | --- |
| 0.42 nM | B1 |
| 0.55 nM | B2 |
| 0.99 nM | B3 |
| 4.01 nM | B4 |

target: T3, HGF; assay: direct bind ELISA, C-term VD;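 further: ELISA with antibody or DVD-Ig preparations applied to target antigen-coated plates for 1 h at room temperature, TMB colour development, absorbance read at 450 nm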

| EC50 | Binder |
| --- | --- |
| 159 nM | B5 |
